# Laboratory results published in paper PMC3730723, “A Network of HMG-box Transcription Factors Regulates Sexual Cycle in the Fungus Podospora anserina”.
# T1: PaHMG5 (HMG5His) (Podospora anserina, UniProt B2AM17 1-559)
# T1 sequence: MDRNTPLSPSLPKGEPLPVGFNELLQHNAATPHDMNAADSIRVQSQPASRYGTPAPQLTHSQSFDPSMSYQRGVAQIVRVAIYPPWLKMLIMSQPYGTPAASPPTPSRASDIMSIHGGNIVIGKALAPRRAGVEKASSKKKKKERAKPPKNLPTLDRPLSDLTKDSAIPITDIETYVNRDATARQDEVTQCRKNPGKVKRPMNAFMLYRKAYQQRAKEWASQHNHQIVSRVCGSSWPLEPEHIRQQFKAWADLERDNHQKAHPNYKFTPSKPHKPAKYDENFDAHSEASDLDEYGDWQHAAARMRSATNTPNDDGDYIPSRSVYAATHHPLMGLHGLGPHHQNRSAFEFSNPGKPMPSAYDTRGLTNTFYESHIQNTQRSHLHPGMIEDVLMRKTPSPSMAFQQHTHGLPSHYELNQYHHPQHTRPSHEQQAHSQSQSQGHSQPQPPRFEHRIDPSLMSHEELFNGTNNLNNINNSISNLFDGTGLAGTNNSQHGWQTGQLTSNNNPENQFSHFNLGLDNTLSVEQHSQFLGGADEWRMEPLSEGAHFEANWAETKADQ
# B1: KEF1 (PaHMG9) probe (dsDNA)
# DNA 1: GATCGTAGCTATAGACAAAGAAAGCAACAGATAG
# DNA 2: GCTATCTGTTGCTTTCTTTGTCTATAGCTACGAT
# B2: mtHMG1 probe (dsDNA)
# DNA 1: GGAGGGCATCTTCAACAAAGAATCTCGGCAAATA
# DNA 2: GTATTTGCCGAGATTCTTTGTTGAAGATGCCCTC
# B3: PaHMG5 probe (dsDNA)
# DNA 1: GTAGAGAAGCCGGAACAAAGAAAGGAACAAGCAG
# DNA 2: GCTGCTTGTTCCTTTCTTTGTTCCGGCTTCTCTA
# B4: FMR1 probe (dsDNA)
# DNA 1: GTGCAGGATAGCCAACAAAGAAATGACTGCCACG
# DNA 2: GCGTGGCAGTCATTTCTTTGTTGGCTATCCTGCA
# B5: FPR1 probe (dsDNA)
# DNA 1: GGTGAAGGTGAATAACAAAGAAATACACTGACGG
# DNA 2: GCCGTCAGTGTATTTCTTTGTTATTCACCTTCAC
# B6: PaHMG8 probe (dsDNA)
# DNA 1: GTGCAAACGCGGGGACAAAGAAAAAGTCTGGTGC
# DNA 2: GGCACCAGACTTTTTCTTTGTCCCCGCGTTTGCA
# Target: T1, PaHMG5 (HMG5His)
# Assay: EMSA; 20 mM Tris pH 9.0, 500 mM NaCl, 5 mM beta-mercaptoethanol, 5 mM MgCl2, 5% glycerol, 1.25 ug poly(dI-dC), 11 ul, on ice; 6% gel in 0.25x TBE
# Settings: protein: recombinant; tags: C-terminal His6; label: 5'-32P; 33 bp duplex, 1 nt 5' G overhang on each strand
row,Binder,binding result
1,B1,binds
2,B2,binds
3,B3,binds
4,B4,binds
5,B5,binds
6,B6,binds
